We go through one molecule from article PMC5676748, “Structural basis for high-affinity actin binding revealed by a β-III-spectrin SCA5 missense mutation” (Nature Communications, 2017).

This assay concerns the target rabbit skeletal muscle actin, filamentous (F-actin) (rabbit (Oryctolagus cuniculus), UniProt P68135 1-377). Put plainly: co-sedimentation; 3 µM ABD with F-actin from 0 to 140 µM in F-buffer (10 mM Tris pH 7.5, 150 mM NaCl, 0.5 mM ATP, 2 mM MgCl2, 1 mM DTT), 30 min at 23–24 °C, pelleted at 100,000 x g; unbound ABD in the supernatant quantified on Coomassie gels; fit to Y=X/(Kd+X). As to conditions: both partners purified.

B1: WT β-III-spectrin ABD (amino acids 1–284), pE-SUMO construct (domain or fragment)
chain: MSSTLSPTDFDSLEIQGQYSDINNRWDLPDSDWDNDSSSARLFERSRIKALADEREAVQKKTFTKWVNSHLARVTCRVGDLYSDLRDGRNLLRLLEVLSGEILPKPTKGRMRIHCLENVDKALQFLKEQKVHLENMGSHDIVDGNHRLTLGLVWTIILRFQIQDISVETEDNKEKKSAKDALLLWCQMKTAGYPNVNVHNFTTSWRDGLAFNAIVHKHRPDLLDFESLKKCNAHYNLQNAFNLAEKELGLTKLLDPEDVNVDQPDEKSIITYVATYYHYFSKMK
notes: also called WT ABD; pE-SUMO-ABD WT; source: E. coli BL21(DE3)pLysS, purified (Ni-NTA, Ulp1 cleavage, second Ni-NTA, Sephadex S100 gel filtration)
B1 registered a Kd of 75 µM.

A word on the Kd: it is a measure of binding affinity in units of concentration. A lower Kd goes with higher affinity.
